The experiment deals with T1, TATA-binding protein (TBP) (yeast, UniProt P13393 1-240, limits assumed).
T1 construct: Soluble analyte, injected over Gal4 derivatives captured on DNA in SPR
T1 sequence (looked up): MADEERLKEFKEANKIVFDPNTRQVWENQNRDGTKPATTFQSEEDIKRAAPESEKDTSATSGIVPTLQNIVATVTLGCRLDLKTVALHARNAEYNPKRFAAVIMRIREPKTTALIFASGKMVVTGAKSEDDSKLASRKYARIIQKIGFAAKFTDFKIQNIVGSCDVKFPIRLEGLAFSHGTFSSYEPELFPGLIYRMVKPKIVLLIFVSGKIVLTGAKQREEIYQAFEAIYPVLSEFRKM
Briefly: SPR, Gal4 derivative captured on a DNA-bearing chip, TBP injected. As to the method:
PROTEIN—PROTEIN INTERACTIONS: The activators (GAL4 derivatives and other activating regions fused to GAL4 DNA binding domain) were first passed over the DNA-bearing chip. Typically 10 µl of 0.01 mg/ml protein solution (~1 µM) in HBS (10 mM HEPES pH 7.4, 150 mM NaCl, 0.0005% Surfectant P20, Pharmacia) were injected at a flow rate of 5 µl/min, and the DNA was saturated by the activators. This is indicated by the first increase of the RU value on the sensorgrams. Various proteins to be tested (e.g., TBP) were then injected (typically 20 µl of […] solution in HBS at a flow rate of 5 µl/min), and their binding to the activating regions was indicated by the second increase of the RU value on the sensogram. The DNA bearing chip was then regenerated by washing with 10 µl of 0.1% SDS, a procedure that washes both proteins off the DNA, but leaves the DNA bearing chip intact. The baseline of the sensorgrams always comes back to the original level after each regeneration. A different activator was then injected to the same surface at the same concentration, and the DNA was once again saturated with the activators. As a consequence the same number of the molecules of the activators was immobilized to the chip each time. The protein to be tested (e.g., TBP) was once again injected and its binding to this activator was compared to that of the previous one. […]

The values below come from patent US7087711 (Harvard, dated 2006).

B1: GAL4(1-100)+(840-857) (other, yeast, UniProt P04386 1-100, looked up)
chain: MKLLSSIEQACDICRLKKLKCSKEKPKCAKCLKNNWECRYSPKTKRSPLTRAHLTEVESRLERLEQLFLLIFPREDLDMILKMDSLQDIKALLTGLFVQDWTDQTAYNAFGITTGMFN
notes: range 1-100;range 840-857
With B1, the Ka is 2e+06 M⁻¹.

B2: GAL4(1-100)+(840-881) fusion (other, yeast, UniProt P04386 1-100, looked up)
chain: MKLLSSIEQACDICRLKKLKCSKEKPKCAKCLKNNWECRYSPKTKRSPLTRAHLTEVESRLERLEQLFLLIFPREDLDMILKMDSLQDIKALLTGLFVQDWTDQTAYNAFGITTGMFNTTTMDDVYNYLFDDEDTPPNPKKE
notes: range 1-100;range 840-881; also called G4RII' (as Gal4(840-881)) fused to Gal4(1-100); RJR182
For B2, the Ka came out at 6e+06 M⁻¹.
